Ends that are not written are not given here.
What was measured:
MV4-11 = assay: WST-1 / MTT cell viability, MV4-11; details: MV4-11, sequential treatment, 72 hrs
Experimental: Initially, various MV4-11 cell numbers were plated and evaluated 3-7 days later to determine the optimal number of cells to be plated and treatment duration.
Cells were evaluated for viability by WST-1 assay or MTT assay 3-7 days after beginning treatment.
A drug combination index plot was used to assess the synergistic, additive, or antagonistic properties of each combination treatment. […] Combination index (CI) values were calculated using the CompuSyn software. The data were expressed as log(CI).

MDM2 (In-house, 41 kD) [1] = biological target: MDM2 (In-house, 41 kD) (UniProt Q00987); assay: competitive fluorescence polarization, displacement of FAM-labeled linear peptide from MDM2; grade decoded by the scale of Table 4
MDMX (In-house, 40 kD) = biological target: T1, MDMX (In-house, 40 kD) (UniProt O15151); assay: competitive fluorescence polarization, displacement of FAM-labeled linear peptide from MDMX; grade decoded by the scale of Table 4
T1 sequence (looked up): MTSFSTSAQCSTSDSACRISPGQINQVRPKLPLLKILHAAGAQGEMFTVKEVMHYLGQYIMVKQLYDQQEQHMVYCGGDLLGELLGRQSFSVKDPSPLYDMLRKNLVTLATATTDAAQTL

[2] = MCF-7 breast cancer xenograft study, body weight and deaths; format: in vivo, mice
From the text: A negative control stapled peptide.

MDM2 (In-house, 41 kD) [3] = biological target: T2, MDM2 (In-house, 41 kD) (UniProt Q00987 1-125, limits assumed); assay: competitive fluorescence polarization, displacement of FAM-labeled linear peptide from MDM2; grade decoded by the scale of Table 4
T2 construct: Construct limits and any tag are unknown; also called HDM2
T2 sequence (Q00987 1-125 limits assumed): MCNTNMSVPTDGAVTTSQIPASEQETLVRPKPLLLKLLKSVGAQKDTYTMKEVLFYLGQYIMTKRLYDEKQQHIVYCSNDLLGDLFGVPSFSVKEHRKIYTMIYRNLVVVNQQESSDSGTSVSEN

Chain of MDM2 (In-house, 41 kD) (UniProt Q00987) (Q00987 1-125 limits assumed): as above

With `Nc1ncn([C@@H]2O[C@H](CO)[C@@H](O)[C@H]2O)c(=O)n1` [azacitidine, reference compound] the “order of addition: effect on cell growth, AP1 and azacitidine” value (MV4-11) was “suppressed MV4-11 cell growth with or without AP1”.

For “SP757, Ac-tawy$s8nf4CF3ekll$r5a-NH2 (peptide)”, the IC50 (MDM2 (In-house, 41 kD) [1]) was less than 10 nM and the IC50 (MDMX (In-house, 40 kD)) was greater than 1000 nM.

For “SP154 (LTFAEYWAQAASAA; not fully specified)”, the “% BW Change” value ([2]; 30 mg/kg 3x/wk iv, Days 18-39) was “+5.7%”, the “No. with ≥10% BW Loss” value ([2]; 30 mg/kg 3x/wk iv, Days 18-39) was 0/10 and the “No. with ≥20% BW Loss or death” value ([2]; 30 mg/kg 3x/wk iv, Days 18-39) was 0/10. For the same molecule, the “tolerability of dosing regimen” value ([2]; 30 mg/kg three times per week iv) was “well-tolerated”, the “No. with ≥10% BW Loss” value ([2]; 40 mg/kg 2x/wk iv, Days 18-39) was 0/10 and the “No. with ≥20% BW Loss or death” value ([2]; 40 mg/kg 2x/wk iv, Days 18-39) was 2/10 (2 deaths). The “tolerability of dosing regimen” value ([2]; 40 mg/kg twice a week iv) was “not tolerable” and the “mice died during treatment” value ([2]; 40 mg/kg twice a week iv, 10 mice per group) was 2.

B1: SP608, Ac-LTF$r8EYWALL$AAAAAa-NH2 (peptide)
peptide: LTFAEYWALLAAAAAAA
modifications: not fully specified; N-terminal acetyl; $r8 at 4 crosslinked by all-carbon olefin staple to $ at 11; D-Ala (a) at C-terminus; C-terminal amide
notes: stapled peptidomimetic macrocycle
For B1, the Ki (MDM2 (In-house, 41 kD) [3]) was no more than 10 nM.

B2: SP610, Ac-LTF$r8EYWASL$AAAAAa-NH2 (peptide)
peptide: LTFAEYWASLAAAAAAA
modifications: not fully specified; N-terminal acetyl; $r8 at 4 crosslinked by all-carbon olefin staple to $ at 11; D-Ala (a) at C-terminus; C-terminal amide
notes: as for B1
For B2, the Ki (MDM2 (In-house, 41 kD) [3]) was no more than 10 nM.

B3: SP611, Ac-LTF$r8EYWANL$AAAAAa-NH2 (peptide)
peptide: LTFAEYWANLAAAAAAA
modifications: not fully specified; N-terminal acetyl; $r8 at 4 crosslinked by all-carbon olefin staple to $ at 11; D-Ala (a) at C-terminus; C-terminal amide
notes: as for B1
Work on B3 yielded a Ki (MDM2 (In-house, 41 kD) [3]) of no more than 10 nM.

B4: SP613, Ac-LTF$r8EYWAHL$AAAAAa-NH2 (peptide)
peptide: LTFAEYWAHLAAAAAAA
modifications: not fully specified; N-terminal acetyl; $r8 at 4 crosslinked by all-carbon olefin staple to $ at 11; D-Ala (a) at C-terminus; C-terminal amide
notes: as for B1
B4 gave a Ki (MDM2 (In-house, 41 kD) [3]) of no more than 10 nM.

B5: SP609, Ac-LTF$r8EYWAAibL$AAAAAa-NH2 (peptide)
peptide: LTFAEYWAXLAAAAAAA
modifications: not fully specified; N-terminal acetyl; $r8 at 4 crosslinked by all-carbon olefin staple to $ at 11; Aib (2-aminoisobutyric acid) at 9; D-Ala (a) at C-terminus; C-terminal amide
notes: as for B1
In the case of B5, the Ki (MDM2 (In-house, 41 kD) [3]) is reported as no more than 10 nM.

B6: SP612, Ac-LTF$r8EYWACitL$AAAAAa-NH2 (peptide)
peptide: LTFAEYWAXLAAAAAAA
modifications: not fully specified; N-terminal acetyl; $r8 at 4 crosslinked by all-carbon olefin staple to $ at 11; Cit (citrulline) at 9; D-Ala (a) at C-terminus; C-terminal amide
notes: as for B1
B6 showed a Ki (MDM2 (In-house, 41 kD) [3]) of no more than 10 nM.

B7: SP433, Ac-LTF$r8EYWCou7QCba$SAA-NH2 (peptide)
peptide: LTFAEYWXQAASAA
modifications: not fully specified; N-terminal acetyl; $r8 at 4 crosslinked by all-carbon olefin staple to $ at 11; Cou7 at 8 (structure shown only as a drawing); Cba (cyclobutyl alanine) at 10; C-terminal amide
notes: as for B1
With B7 the Ki (MDM2 (In-house, 41 kD) [3]) was no more than 10 nM.

B8: SP686, 5-TAMRA-BaLTF$r8EYWAQCba$SAA-NH2 (peptide)
peptide: ALTFAEYWAQAASAA
modifications: not fully specified; N-terminal 5-TAMRA on beta-alanine (Ba); $r8 crosslinked by all-carbon olefin staple to $; Cba (cyclobutyl alanine); C-terminal amide
notes: TAMRA-labeled stapled peptidomimetic macrocycle
In the case of B8, the Ki (MDM2 (In-house, 41 kD) [3]) is reported as no more than 10 nM.

B9: SP595, Ac-LTF$r8EYWAQCba$S-NH2 (peptide)
peptide: LTFAEYWAQAAS
modifications: not fully specified; N-terminal acetyl; $r8 at 4 crosslinked by all-carbon olefin staple to $ at 11; Cba (cyclobutyl alanine) at 10; C-terminal amide
notes: as for B1
B9 gave a Ki (MDM2 (In-house, 41 kD) [3]) greater than 1000 nM.

— patent publication US20200369728A1, “PEPTIDOMIMETIC MACROCYCLES AND USES THEREOF” (Aileron Therapeutics, Inc., priority 2015, published 2020)
